Source: article PMC10607609, “The Functionality of IbpA from Acholeplasma laidlawii Is Governed by Dynamic Rearrangement of Its Globular–Fibrillar Quaternary Structure” (International Journal of Molecular Sciences, 2023)

How the values were obtained:
[1] = biological target: full-length AlIbpA_(His6), small heat shock protein IbpA from Acholeplasma laidlawii (Acholeplasma laidlawii) (UniProt A9NFB2); test: BLI; BLItz; biotinylated AlIbpA_(His6) loaded on a streptavidin biosensor (2.0 nm); analyte 10 µM in PBS pH 7.4; 300 s association, 300 s dissociation; BSA control subtracted
[2] = biological target: AlDnaKST, recombinant C-terminally StrepII-tagged DnaK (HSP70) from Acholeplasma laidlawii (Acholeplasma laidlawii) (UniProt A9NFN8); test: BLI; BLItz; biotinylated AlDnaKST or AlClpBST loaded on a streptavidin biosensor (2.0 nm); analyte in PBS pH 7.4; 300 s association, 300 s dissociation; BSA control subtracted
[3] = biological target: T1, AlDnaKST, recombinant C-terminally StrepII-tagged DnaK (HSP70) from Acholeplasma laidlawii (Acholeplasma laidlawii, UniProt A9NFN8 1-610, biotin (EZ-Link NHS-PEG4-biotin) where it was the protein immobilised on the streptavidin biosensor); test: BLI; BLItz; biotinylated AlIbpA_(His6) loaded on a streptavidin biosensor (2.0 nm); analyte 10 µM in PBS pH 7.4; 300 s association, 300 s dissociation; BSA control subtracted; settings: both partners purified
T1 construct: DnaK (HSP70) of Acholeplasma laidlawii, from a synthetic gene dnaK cloned in pET-28a(+); Plasmid pET-28a-AlDnaKST; source: E. coli BL21 (DE3), purified (Strep-tactin agarose); not shown: StrepII, C-terminal, kept

[4] = biological target: T1, AlDnaKST, recombinant C-terminally …; test: BLI; BLItz; biotinylated AlDnaKST or AlClpBST loaded on a streptavidin biosensor (2.0 nm); analyte in PBS pH 7.4; 300 s association, 300 s dissociation; BSA control subtracted; settings: both partners purified
[5] = biological target: AlClpBST, recombinant C-terminally StrepII-tagged ClpB (HSP100) from Acholeplasma laidlawii (Acholeplasma laidlawii); test: as above

Molecule: AlClpBST, recombinant C-terminally StrepII-tagged ClpB (HSP100) from Acholeplasma laidlawii (natural protein)
- Kd [1]: 1200 nM
- Kd [2]: 20300 nM

Molecule: AlIbpA∆N12_(His6)–insulin complex, chemically cross-linked with glutaraldehyde (from UniProt A9NFB2 13-137)
- fold increase in KD against AlIbpA∆N12 (His6) alone [2]: 2 fold

Molecule: human insulin (ligand)
- Kd [1]: 100 nM

B1: full-length AlIbpA_(His6), small heat shock protein IbpA from Acholeplasma laidlawii (natural protein, UniProt A9NFB2 1-137, looked up)
chain: MLSLLNKNRSFFDDFFEDFNVLNPVTTSNLMRTDIKETQNGYSLSVELPGFKKEDVKVSLEDGYLTIEAHTSKNSETKDQATKYIRKERYEGTMKRSYYVGNLHLDEINGTFENGMLHIELPKETKKEPEKRYLELK
modifications: biotin (EZ-Link NHS-PEG4-biotin) where it was the protein immobilised on the streptavidin biosensor
notes: Forms globular and fibrillar oligomers; also called HSP20; sHSP; source: E. coli BL21 (DE3), purified (Ni-NTA agarose)
- Kd [3]: 3100 nM
- Kd [4]: 100 nM
- Kd [5]: 200 nM

B2: AlIbpAΔN12_(His6), AlIbpA lacking 12 N-terminal amino acid residues (domain or fragment, Acholeplasma laidlawii, UniProt A9NFB2 13-137, looked up)
chain: DDFFEDFNVLNPVTTSNLMRTDIKETQNGYSLSVELPGFKKEDVKVSLEDGYLTIEAHTSKNSETKDQATKYIRKERYEGTMKRSYYVGNLHLDEINGTFENGMLHIELPKETKKEPEKRYLELK
notes: The limit 13 is worked out from 'removal of 12 N-terminal amino acid residuals'; Forms mostly fibrils; also called AlIbpA∆N12_(His6); AlIbpAN12_(His6); source: E. coli BL21 (DE3), purified (Ni-NTA agarose)
- fold decrease of binding affinity against full-length AlIbpA_(His6) [4]: 15 fold
